Reference: article PMC3855398

Biological target: hGle1B tagged with mCerulean3 (Cer3-hGle1B) or mVenus (Venus-hGle1B) (human) (UniProt Q53GS7)
Experiment: FRET or BRET

Sequence of UniProt Q53GS7 (Q53GS7 whole entry): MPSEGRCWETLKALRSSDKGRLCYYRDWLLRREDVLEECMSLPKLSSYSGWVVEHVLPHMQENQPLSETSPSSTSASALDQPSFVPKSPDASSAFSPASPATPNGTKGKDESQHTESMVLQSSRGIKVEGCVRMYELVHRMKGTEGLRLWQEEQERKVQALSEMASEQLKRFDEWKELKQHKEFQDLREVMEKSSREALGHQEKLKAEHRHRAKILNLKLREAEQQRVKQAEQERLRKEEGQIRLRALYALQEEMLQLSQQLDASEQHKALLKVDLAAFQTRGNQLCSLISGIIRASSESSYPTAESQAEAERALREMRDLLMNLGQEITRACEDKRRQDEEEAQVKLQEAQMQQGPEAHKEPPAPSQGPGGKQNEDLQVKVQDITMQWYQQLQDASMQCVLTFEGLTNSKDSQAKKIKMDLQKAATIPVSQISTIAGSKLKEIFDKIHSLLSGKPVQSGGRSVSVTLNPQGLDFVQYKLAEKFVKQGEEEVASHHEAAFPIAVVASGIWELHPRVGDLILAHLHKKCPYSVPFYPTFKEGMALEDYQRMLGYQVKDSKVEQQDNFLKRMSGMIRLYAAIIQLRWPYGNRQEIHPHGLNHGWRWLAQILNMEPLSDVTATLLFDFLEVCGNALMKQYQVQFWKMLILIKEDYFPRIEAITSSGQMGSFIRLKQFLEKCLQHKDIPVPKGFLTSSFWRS

- FRET efficiency (cytoplasm and nucleoplasm): < 1.25%
- normalized FRET (NFRET) signal (all locations): < 4.08
Substance: mCerulean3 alone
